Patent US7217686B1, “DNA sequence encoding oncofetal ferritin protein” (Gardino Investment N.V., priority 1999, dated 2007)
“And” between values parts separate entries of the source, which are not always exact repeats. Identical values can stand only once.

What was measured:
[1] = tested on: C57Bl Donor lymphocytes in transplanted Balb/c mice; assay: Bone marrow transplantation C57Bl into Balb/c, flow cytometry for donor K^b positive cells; type: in vivo; settings: Balb/c BMT treated with OFF1 (ex vivo 1 μg/ml, 10 μg i.p. for 14 days); 6 weeks post transplantation; results not shown
Source text: Animals: C57BL/6 (H2^b) and BALB/c (H2^d) mice were purchased from Harlane. Donors and recipients were 8–10 wk of age at the time of BMT. All mice were housed in a specific pathogen-free facility in microisolator cages.
Ex-vivo induction of anergy in mixed lymphocyte reaction (MLR): C57Bl donor bone marrow (responder) was harvested 2 days before transplantation. Balb/c recipient (stimulator) spleen cells were irradiated at a midplane dose of 3300 cGy. The cells were resuspended in RPMI-1640 medium with 5% mouse serum to 4×10^6/ml and incubated with 1 μg/ml of OFF1 for 30 min.
The erythrocyte depleted mononuclear cell fraction of the marrow was resuspended at a concentration of 4×10^6/ml in the above medium in a Donor:Recipient ratio of 1:1. The cells were cultured in tissue culture flasks for 36 hours at 37° C. in 5% CO2, washed and resuspended to 2×10^7 cells/1 ml in PBS containing OFF1 (1 μg/ml).
Bone marrow Transplantation (BMT): Balb/c recipients were sublethely irradiated by exposing mice to 5;5 GRAY total body irradiation from a ^137Cesium source at a dose rate of 85 cGY/min.
Day 2 MLR cultured cells (10^7/0.5 ml) were injected intravenously to BALB/c mice pretreated with OFF1 ((10 μg) injected i.p.) (BMT+OFF1). […]
All results were obtained using FACS (Beckton Dickenson). […] 10,000 cells were analyzed for each determination.

[2] = tested on: splenocytes from Balb/c mice transplanted with C57Bl bone marrow; assay: MLR of splenocytes from bone marrow transplanted Balb/c mice against alloantigens; type: cell-based
Source text: (§1) Immunologic assay: Splenocytes from bone marrow transplanted (BMT) Balb/c mice were reacted as above in MLR against the donor C57Bl splenocytes or against non-related splenocytes, to measure their immunoresponsiveness to the corresponding alloantigens.
Splenocytes obtained from Balb/c mice (K^b) treated with BMT+PBS (control) and with BMT+OFF1 were used as responder cells (R) and were reacted with C57Bl (K^b) splenocytes as stimulator cells (S) in MLR.

[3] = tested on: human bone marrow progenitor CFU-GM; assay: CFU-GM colony assay with normal human bone marrow mononuclear cells; type: cell-based; settings: for number of CFU-GM colonies: scored after 14 days
Protocol: Bone marrow samples from 11 healthy volunteer donors were processed by density gradient separation using […] (Sigma diagnostics, St. Louis, Mo., USA) to obtain a purified population of mononuclear cells. Colony assays were performed in a plating medium containing final concentrations of 0.92% methyl cellulose (M-281 powder, 4,000 centipoise, Fisher Scientific Co., Fair Lawn, N.J., USA), rehydrated in Iscove's modified Dulbecco's medium containing 36 mM sodium bicarbonate (Gibco, Grand Island, N.Y., USA), 30% fetal bovine serum (FBS) (HyClone, Logan, Utah, USA) 0.292 mg/ml glutamine, 100 U/ml penicillin and 0.01 mg/ml streptomycin (Biological Industries, Beit Haemek, Israel). Growth factors used were […] GM-CSF Leucomax (Sandoz Pharma) and 5% vol/vol human phytohemagglutinin-M (Difco Laboratories, Detroit, Mich., USA)-induced conditioned medium (Cond. Med.) p43 (PLF) was added at concentration of 1 μg/mL and in neutralization experiments, p43 (PLF) was preincubated with 10× excess of CM-H-9 MoAb at 37° C. for 30 min and the complex added to the assay as above. The colony assay medium contained 10^5 mononuclear cells/ml and each 1 ml was plated into triplicate wells (333 μl/well) of a 24 well tissue culture plate (Greiner, Germany). Water was added to spaces between cells to maximize humidity during incubation of the cultures. The cultures were incubated at 37° C. in 5% CO2 and 55% relative humidity. Plates were scored after 14 days for colonies containing more than 50 cells.

[4] = tested on: splenocytes from Balb/c mice transplanted with C57Bl bone marrow; assay: In-vitro OFF1 treatment of splenocytes from transplanted Balb/c mice in MLR; type: cell-based
Source text: as §1
In further experiments we tested the in-vitro effect of OFF1 treatment on responsiveness of splenocytes from control BMT+PBS against both donor C57Bl stimulators and against ICR stimulators.

[5] = 11 donors, Cond. Med. 5% vol/vol, p43 (PLF) 1 μg/ml, GM-CSF 15 ng/ml

B1: OFF1: oncofetal ferritin 1 protein, purified from term placenta, termed also p43 (placental isoferritin, PLF) (protein)
chain: MTTASTSQVRQNYHQDSEAAINRQINLELYASYVYLSMSYYFDRDDVALKNFAKYFLHQSHEEREHAEKLMKLQNQRGGRIFLQDIKKPDCDDWESGLNAMECALHLEKNVNQSLLEFPSPISPSPSCWHHYTTNRPQPQHHLLRPRRRKRPHSIPTPILIFRSP
modifications: left off: a dimerising Fc or GST
B1 was tested, and the “K^b positive donor cells in bone marrow and spleen” value [1] was “development of hematopoietic chimerism”, the “P.I. (Proliferation Index), BMT + OFF1, in-vitro treatment None” value ([2]; Stimulator C57Bl) was 1.3 and the “P.I. (Proliferation Index), BMT + OFF1” value ([2]; Stimulator C57Bl, S/R Ratio 0) was 1. The “P.I. (Proliferation Index), BMT + OFF1” value ([2]; Stimulator C57Bl, S/R Ratio 0.2) was 1.3, the “P.I. (Proliferation Index), BMT + OFF1” value ([2]; Stimulator C57Bl, S/R Ratio 1) was 1 and the “P.I. (Proliferation Index), BMT + OFF1” value ([2]; Stimulator C57Bl, S/R Ratio 4) was 1.1. The “P.I. (Proliferation Index), BMT + OFF1, in-vitro treatment None” value ([2]; Stimulator ICR) was 9.6, the “P.I. (Proliferation Index), BMT + OFF1” value ([2]; Stimulator ICR, S/R Ratio 0) was 1 and the “P.I. (Proliferation Index), BMT + OFF1” value ([2]; Stimulator ICR, S/R Ratio 0.2) was 1.8. For the same molecule, the “P.I. (Proliferation Index), BMT + OFF1” value ([2]; Stimulator ICR, S/R Ratio 1) was 2.6, the “P.I. (Proliferation Index), BMT + OFF1” value ([2]; Stimulator ICR, S/R Ratio 4) was 9.6 and the “response of splenocytes of BMT+OFF1 chimeric mice to donor C57Bl stimulators in MLR” value ([2]; any S/R ratios) was “completely anergic”. For the same molecule, the “MEDIAN number of CFU-GM colonies” value [3, 5] was 94, the “RANGE of number of CFU-GM colonies” value [3, 5] was 0–748 and the “mean number of CFU-GM colonies (AVG.)” value [3, 5] was 169+/−216 and 169. For the same molecule, the “number of CFU-GM colonies” value ([3]; Bone Marrow No. 1, Cond. Med. 5% vol/vol, p43 (PLF) 1 μg/ml, GM-CSF 15 ng/ml) was 280, the “number of CFU-GM colonies” value ([3]; Bone Marrow No. 2, Cond. Med. 5% vol/vol, p43 (PLF) 1 μg/ml, GM-CSF 15 ng/ml) was 748 and the “number of CFU-GM colonies” value ([3]; Bone Marrow No. 3, Cond. Med. 5% vol/vol, p43 (PLF) 1 μg/ml, GM-CSF 15 ng/ml) was 152. For the same molecule, the “number of CFU-GM colonies” value ([3]; Bone Marrow No. 4, Cond. Med. 5% vol/vol, p43 (PLF) 1 μg/ml, GM-CSF 15 ng/ml) was 28, the “number of CFU-GM colonies” value ([3]; Bone Marrow No. 5, Cond. Med. 5% vol/vol, p43 (PLF) 1 μg/ml, GM-CSF 15 ng/ml) was 94 and the “number of CFU-GM colonies” value ([3]; Bone Marrow No. 6, Cond. Med. 5% vol/vol, p43 (PLF) 1 μg/ml, GM-CSF 15 ng/ml) was 6. For the same molecule, the “number of CFU-GM colonies” value ([3]; Bone Marrow No. 7, Cond. Med. 5% vol/vol, p43 (PLF) 1 μg/ml, GM-CSF 15 ng/ml) was 0, the “number of CFU-GM colonies” value ([3]; Bone Marrow No. 8, Cond. Med. 5% vol/vol, p43 (PLF) 1 μg/ml, GM-CSF 15 ng/ml) was 242 and the “number of CFU-GM colonies” value ([3]; Bone Marrow No. 9, Cond. Med. 5% vol/vol, p43 (PLF) 1 μg/ml, GM-CSF 15 ng/ml) was 8. The “number of CFU-GM colonies” value ([3]; Bone Marrow No. 10, Cond. Med. 5% vol/vol, p43 (PLF) 1 μg/ml, GM-CSF 15 ng/ml) was 210, the “number of CFU-GM colonies” value ([3]; Bone Marrow No. 11, Cond. Med. 5% vol/vol, p43 (PLF) 1 μg/ml, GM-CSF 15 ng/ml) was 94 and the “concentration giving the highest number of CFU-GM colonies” value ([3]; dose response, bone marrow progenitor cells from three donors (FIG. 10)) was 1 μg/1 mL. For the same molecule, the “Mean CFU-GM following preincubation with MoAb CM-H9” value ([3]; p43 (PLF) 1 μg/mL preincubated with 10× excess of CM-H-9 MoAb at 37° C. for 30 min) was 7+/−10, the “P.I. (Proliferation Index), BMT + OFF1, in-vitro treatment OFF1” value ([4]; Stimulator C57Bl) was 1.3 and the “P.I. (Proliferation Index), BMT + PBS, in-vitro treatment OFF1” value ([4]; Stimulator C57Bl) was 1. For the same molecule, the “P.I. (Proliferation Index), BMT + OFF1, in-vitro treatment OFF1” value ([4]; Stimulator ICR) was 4.7 and the “P.I. (Proliferation Index), BMT + PBS, in-vitro treatment OFF1” value ([4]; Stimulator ICR) was 3.5.
